Results as given in paper PMC11335232.

Target: T1, CTCF recombinant full-length (OriGene) (UniProt P49711)
T1 sequence: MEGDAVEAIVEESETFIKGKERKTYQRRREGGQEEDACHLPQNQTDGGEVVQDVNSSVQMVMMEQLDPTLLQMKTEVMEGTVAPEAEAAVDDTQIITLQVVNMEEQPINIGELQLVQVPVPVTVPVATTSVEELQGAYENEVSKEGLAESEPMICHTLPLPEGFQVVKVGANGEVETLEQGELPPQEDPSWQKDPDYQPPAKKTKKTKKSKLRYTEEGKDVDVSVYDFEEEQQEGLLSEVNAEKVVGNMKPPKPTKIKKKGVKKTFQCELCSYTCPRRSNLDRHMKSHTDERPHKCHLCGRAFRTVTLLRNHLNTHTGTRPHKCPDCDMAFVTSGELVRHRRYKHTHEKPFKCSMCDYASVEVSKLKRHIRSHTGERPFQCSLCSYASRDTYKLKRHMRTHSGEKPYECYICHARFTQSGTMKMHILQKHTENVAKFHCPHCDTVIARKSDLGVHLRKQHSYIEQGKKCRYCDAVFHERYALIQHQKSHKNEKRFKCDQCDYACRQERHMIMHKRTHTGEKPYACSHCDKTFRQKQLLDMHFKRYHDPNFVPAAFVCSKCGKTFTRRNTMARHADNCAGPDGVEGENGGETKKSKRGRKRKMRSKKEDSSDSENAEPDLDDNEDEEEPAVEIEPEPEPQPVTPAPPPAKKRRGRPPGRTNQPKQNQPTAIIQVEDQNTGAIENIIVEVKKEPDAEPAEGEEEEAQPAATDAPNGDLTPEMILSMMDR
Test: EMSA, competition
Details: LightShift Chemiluminescent RNA EMSA Kit (20158) and Pierce Magnetic RNA-Protein Pull-down Kit (20164) protocols; buffer, salt, pH and temperature not stated

For “TTTACAGCGGTGAGGACCACCAAGGGGAGCTAAAATTCGAATGTAGGGAACAGACGATTAACAAGTTAGTTTCAGAATGAAAGACTCGAGTGTAAGAATTCAATGGGATAATTCCTGTAAAGCGTTTAGTACAGTAAAGAGCGAAGGGAAATTCTGAATAAAAGGCAGACACTATTTTAGGATTTGGCCTTCCCCG (double strand) [RAB5A-set3 promoter DNA probe (196 bp)]”, the binding was “binds”.
